# Reference: US7208581 (BURNHAM INSTITUTE FOR MEDICAL RESEARCH, dated 2007)
# T1: hTRAF 2 (complete open reading frame, in vitro translated from pcDNA3-HA-TRAF2) (human, UniProt Q12933 2-501, 35S-methionine labelled)
# T1 construct: mature; also called human TRAF 2; not shown: HA tag of the pcDNA3-HA vector
# T1 sequence (looked up): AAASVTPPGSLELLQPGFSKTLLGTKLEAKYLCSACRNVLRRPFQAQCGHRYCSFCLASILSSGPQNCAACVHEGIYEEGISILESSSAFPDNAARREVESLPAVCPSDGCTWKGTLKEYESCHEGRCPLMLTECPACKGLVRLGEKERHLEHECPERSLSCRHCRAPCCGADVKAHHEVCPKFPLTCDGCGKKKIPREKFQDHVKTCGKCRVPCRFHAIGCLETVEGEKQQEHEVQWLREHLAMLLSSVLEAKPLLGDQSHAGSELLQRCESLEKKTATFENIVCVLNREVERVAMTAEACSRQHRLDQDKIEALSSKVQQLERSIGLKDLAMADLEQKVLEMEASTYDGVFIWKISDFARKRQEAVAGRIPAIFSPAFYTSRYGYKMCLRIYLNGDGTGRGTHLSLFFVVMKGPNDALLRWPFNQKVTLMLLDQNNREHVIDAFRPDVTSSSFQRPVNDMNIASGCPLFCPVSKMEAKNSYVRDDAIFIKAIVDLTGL
# T2: hTRAF4 (complete open reading frame, in vitro translated from pcDNA3-HA-TRAF4) (human, UniProt Q9BUZ4 1-470, 35S-methionine labelled)
# T2 construct: mature; also called human TRAF 4; not shown: HA tag of the pcDNA3-HA vector
# T2 sequence (looked up): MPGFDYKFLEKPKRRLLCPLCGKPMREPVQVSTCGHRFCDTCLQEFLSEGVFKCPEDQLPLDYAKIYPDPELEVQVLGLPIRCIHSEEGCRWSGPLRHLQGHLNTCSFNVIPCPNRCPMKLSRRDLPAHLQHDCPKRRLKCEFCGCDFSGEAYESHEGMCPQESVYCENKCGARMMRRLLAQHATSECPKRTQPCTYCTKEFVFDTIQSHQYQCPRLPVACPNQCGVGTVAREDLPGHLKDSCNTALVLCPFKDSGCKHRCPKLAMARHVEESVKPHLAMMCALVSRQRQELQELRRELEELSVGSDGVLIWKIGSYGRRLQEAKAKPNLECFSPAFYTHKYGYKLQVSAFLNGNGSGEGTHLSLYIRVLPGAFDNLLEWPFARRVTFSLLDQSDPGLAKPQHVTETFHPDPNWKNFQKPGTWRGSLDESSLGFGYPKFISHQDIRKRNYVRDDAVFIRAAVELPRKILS
# T3: full-length I-TRAF (in vitro translated) (UniProt Q92844 1-425, limits assumed, 35S-methionine labelled)
# T3 construct: mature
# T3 sequence (looked up): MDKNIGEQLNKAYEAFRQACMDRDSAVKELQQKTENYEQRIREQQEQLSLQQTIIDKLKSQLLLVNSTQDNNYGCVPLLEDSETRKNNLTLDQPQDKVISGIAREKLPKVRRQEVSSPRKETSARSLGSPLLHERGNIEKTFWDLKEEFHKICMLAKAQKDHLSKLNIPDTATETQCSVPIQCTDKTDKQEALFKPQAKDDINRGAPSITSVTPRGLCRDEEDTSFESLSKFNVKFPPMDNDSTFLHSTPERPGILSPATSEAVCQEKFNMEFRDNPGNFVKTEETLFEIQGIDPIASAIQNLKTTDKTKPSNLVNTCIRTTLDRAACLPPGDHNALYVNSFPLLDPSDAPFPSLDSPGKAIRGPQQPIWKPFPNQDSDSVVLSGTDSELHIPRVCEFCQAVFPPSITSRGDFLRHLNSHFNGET
# B1: GST-CD40(ct) (receptor, UniProt P25942 216-277, looked up)
# chain: KKVAKKPTNKAPHPKQEPQEINFPDDLPGSNTAAPVQETLHGCQPVTQEDGKESRISVQERQ
# notes: domain: cytosolic domain; not shown: glutathione S-transferase tag of plasmid pGEX-CD40(ct)
# B2: GST-SPOP (1-180) (other)
# chain: MSRVPSPPPPAEMSSGPVAESWCYTQIKVVKFSYMWTINNFSFCREEMGEVIKSSTFSSGANDKLKWCLRVNPKGLDEESKDYLSLYLLLVSCPKSEVRAKFKFSILNAKGEETKAMESQRAYRFVQGKDWGFKKFIRRDFLLDEANGLLPDDKLTLFCEVSVVQDSVNISGQNTMNMVK
# notes: Bacterial GST fusion purified on glutathione-Sepharose. cDNA amplified from Jurkat cells; also called GST-SPOP fusion protein; GST-fused TPBD of SPOP; not shown: glutathione S-transferase tag encoded by the pGEX4T vector (Pharmacia)
# B3: SPOP (1-180), not GST-fused (pcDNA3-myc-SPOP (1-180)) (other)
# chain: MSRVPSPPPPAEMSSGPVAESWCYTQIKVVKFSYMWTINNFSFCREEMGEVIKSSTFSSGANDKLKWCLRVNPKGLDEESKDYLSLYLLLVSCPKSEVRAKFKFSILNAKGEETKAMESQRAYRFVQGKDWGFKKFIRRDFLLDEANGLLPDDKLTLFCEVSVVQDSVNISGQNTMNMVK
# notes: also called in vitro translated SPOP (1-180); TPBD of SPOP; not shown: myc tag of the pcDNA3-myc vector
# B4: GST-TNF-R2(ct) (receptor, UniProt P20333 288-461, looked up)
# chain: KKKPLCLQREAKVPHLPADKARGTQGPEQQHLLITAPSSSSSSLESSASALDRRAPTRNQPQAPGVEASGAGEARASTGSSDSSPGGHGTQVNVTCIVNVCSSSDHSSQCSSQASSTMGDTDSSPSESPKDEQVPFSKEECAFRSQLETPETLLGSTEEKPLPLGVPDAGMKPS
# notes: domain: cytosolic domain; Plasmid provided by Dr. C; Ware; also called TNF-receptor 2; not shown: glutathione S-transferase tag of plasmid pGEX-TNF-R2(ct)
# B5: GST-DR4(ct) (receptor, UniProt O00220 263-468, looked up)
# chain: CIGSGCGGDPKCMDRVCFWRLGLLRGPGAEDNAHNEILSNADSLSTFVSEQQMESQEPADLTGVTVQSPGEAQCLLGPAEAEGSQRRRLLVPANGADPTETLMLFFDKFANIVPFDSWDQLMRQLDLTKNEIDVVRAGTAGPGDALYAMLMKWVNKTGRNASIHTLLDALERMEERHAREKIQDLLVDSGKFIYLEDGTGSAVSLE
# notes: domain: cytosolic domain; not shown: glutathione S-transferase tag of plasmid pGEX-DR4(ct)
# B6: GST-fusion protein containing the cytosolic domain of HVEM (receptor, UniProt Q92956 224-283, looked up)
# chain: CVKRRKPRGDVVKVIVSVQRKRQEAEGEATVIEALQAPPDVTTVAVEETIPSFTGRSPNH
# notes: domain: cytosolic domain; Only named in the 293T lysate experiment; not shown: glutathione S-transferase tag
# B7: GST-LTβR(ct) (receptor, UniProt P36941 249-435, looked up)
# chain: KSHPSLCRKLGSLLKRRPQGEGPNPVAGSWEPPKAHPYFPDLVQPLLPISGDVSPVSTGLPAAPVLEAGVPQQQSPLDLTREPQLEPGEQSQVAHGTNGIHVTGGSMTITGNIYIYNGPVLGGPPGPGDLPATPEPPYPIPEEGDPGPPGLSTPHQEDGKAWHLAETEHCGATPSNRGPRNQFITHD
# notes: domain: cytosolic domain; also called lymphotoxin-β receptor; not shown: glutathione S-transferase tag of plasmid pGEX-LTβR(ct)
# B8: TRAF7 (282-435), not GST-fused (pcDNA3-myc-TRAF7 (282-435)) (other)
# chain: FTSELVPSYDSATFVLENFSTLRQRADPVYSPPLQVSGLCWRLKVYPDGNGVVRGYYLSVFLELSAGLPETSKYEYRVEMVHQSCNDPTKNIIREFASDFEVGECWGYNRFFRLDLLANEGYLNPQNDTVILRFQVRSPTFFQKSRDQHWYIT
# notes: transfected in the reporter assay; also called in vitro translated TRAF7 (282-435); TRAF domain of TRAF7; not shown: myc tag of the pcDNA3-myc vector
# B9: GST-Fas(ct) (receptor, UniProt P25445 191-335, looked up)
# chain: KRKEVQKTCRKHRKENQGSHESPTLNPETVAINLSDVDLSKYITTIAGVMTLSQVKGFVRKNGVNEAKIDEIKNDNVQDTAEQKVQLLRNWHQLHGKKEAYDTLIKDLKKANLCTLAEKIQTIILKDITSDSENSNFRNEIQSLV
# notes: domain: cytosolic domain; not shown: glutathione S-transferase tag of plasmid pGEX-Fas(ct)
# How the values were obtained:
# GST-HAUSP (1-213) = target: T4, GST-HAUSP (1-213) (human, UniProt Q93009 1-213); test: GST pull-down, 35S in vitro translated protein, SDS-PAGE and fluorography
# T4 construct: Bacterial GST fusion purified on glutathione-Sepharose. cDNA amplified from Jurkat cells; also called GST-fused TPBD of HAUSP; HAUSP TPBD; not shown: glutathione S-transferase tag encoded by the pGEX4T vector (Pharmacia)
# T4 sequence (Q93009 1-213): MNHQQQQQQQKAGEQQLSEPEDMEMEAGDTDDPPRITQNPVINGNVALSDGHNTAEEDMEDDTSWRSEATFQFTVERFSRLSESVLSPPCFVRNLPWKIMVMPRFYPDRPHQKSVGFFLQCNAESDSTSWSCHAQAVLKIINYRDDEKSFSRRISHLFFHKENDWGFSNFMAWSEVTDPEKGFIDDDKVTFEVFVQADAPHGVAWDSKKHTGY
# GST-SPOP (1-180) = target: B2; test: as above
# GST-DR4(ct) = target: B5; test: as above
# [1] = target: T1, hTRAF 2 (complete open reading frame, …); test: as above
# [2] = target: T2, hTRAF4 (complete open reading frame, in …); test: as above
# [3] = target: T5, hTRAF5 (complete open reading frame, in vitro translated from pcDNA3-Flag-TRAF5) (human, UniProt O00463 1-557, 35S-methionine labelled); test: as above
# T5 construct: mature; also called human TRAF 5; not shown: Flag tag of the pcDNA3-Flag vector
# T5 sequence (O00463 whole entry): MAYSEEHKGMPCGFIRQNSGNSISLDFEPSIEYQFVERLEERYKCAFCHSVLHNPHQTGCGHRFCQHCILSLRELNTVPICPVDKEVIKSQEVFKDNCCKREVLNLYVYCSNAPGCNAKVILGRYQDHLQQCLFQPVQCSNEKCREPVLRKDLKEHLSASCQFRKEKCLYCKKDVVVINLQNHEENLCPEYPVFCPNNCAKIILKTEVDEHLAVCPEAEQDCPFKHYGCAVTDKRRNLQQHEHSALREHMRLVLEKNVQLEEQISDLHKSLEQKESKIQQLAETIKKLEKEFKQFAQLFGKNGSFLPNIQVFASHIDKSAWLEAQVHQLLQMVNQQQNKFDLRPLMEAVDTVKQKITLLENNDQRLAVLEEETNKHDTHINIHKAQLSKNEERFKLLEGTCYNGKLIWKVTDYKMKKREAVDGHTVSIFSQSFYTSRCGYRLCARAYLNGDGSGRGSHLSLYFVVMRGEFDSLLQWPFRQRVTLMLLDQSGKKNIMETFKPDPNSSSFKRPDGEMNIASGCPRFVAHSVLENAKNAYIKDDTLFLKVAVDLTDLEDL
# [4] = target: T3, full-length I-TRAF (in vitro translated); test: as above
# [5] = target: B3; test: as above
# GST-LTβR(ct) = target: B7; test: as above
# [6] = target: B8; test: GST pull-down from 293T cell lysate, anti-Myc immunoblot
# Method: Bound TRAF proteins were detected by SDS-PAGE and fluorography.
# Equal volumes of the in vitro translation mixtures (10 μl) were incubated with GST-fusion proteins containing the cytosolic domains of different members of the TNF-R family (1 μg)(FAS, TNF-R2, CD40, LTβR, NGFRp75, and DR4) immobilized on glutathione-Sepharose. […] Control GST and other GST control proteins were included in all assays After washing, bound proteins were analyzed by SDS-PAGE followed by fluorography for binding assays using in vitro translated proteins. […] Bound proteins were then detected by standard chemiluminescence assay (ECL; Amersham; Piscataway N.J.).
Binder,binding result (GST-HAUSP (1-213)),binding result (GST-SPOP (1-180)),further results
B1,no binding,no binding,–
B2,–,–,binding result (GST-DR4(ct)): no binding; binding result [1]: no binding; binding result [2]: no binding; binding result [3]: no binding; binding result [4]: no binding; binding result [5]: no binding; binding result (GST-LTβR(ct)): no binding
B3,no binding,–,–
B4,no binding,–,–
B5,no binding,–,–
B6,–,–,binding result [6]: no binding
B7,no binding,–,–
B8,no binding,no binding,–
B9,no binding,no binding,–
